Publication PMC10397247
Like-named read-outs stand apart in the source and are kept apart here.

T1: O4-bP
T1 chain: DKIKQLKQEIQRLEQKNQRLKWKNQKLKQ

T2: O8-bP
T2 chain: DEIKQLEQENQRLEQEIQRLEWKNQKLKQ

T3: O11-bP
T3 chain: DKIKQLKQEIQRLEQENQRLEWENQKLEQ

T4: O16-bP
T4 chain: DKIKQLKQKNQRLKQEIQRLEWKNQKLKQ

T5: O6-bP
T5 chain: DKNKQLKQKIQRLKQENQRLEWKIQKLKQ

T6: O12-bP
T6 chain: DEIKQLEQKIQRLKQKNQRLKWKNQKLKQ

T7: O2-bP
T7 chain: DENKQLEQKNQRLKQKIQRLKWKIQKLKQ

T8: O5-bP
T8 chain: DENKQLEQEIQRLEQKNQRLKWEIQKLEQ

T9: O15-bP
T9 chain: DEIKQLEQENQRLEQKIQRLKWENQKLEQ

T10: O1-bP
T10 chain: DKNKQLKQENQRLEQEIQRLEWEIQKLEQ

T11: O13-bP
T11 chain: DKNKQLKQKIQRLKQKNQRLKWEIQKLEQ

T12: O3-bP
T12 chain: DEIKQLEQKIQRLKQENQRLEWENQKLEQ

T13: O7-bP
T13 chain: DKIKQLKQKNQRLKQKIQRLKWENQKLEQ

T14: O9-bP
T14 chain: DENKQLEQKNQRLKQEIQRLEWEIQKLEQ

T15: O10-bP
T15 chain: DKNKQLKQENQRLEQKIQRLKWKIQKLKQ

T16: O14-bP
T16 chain: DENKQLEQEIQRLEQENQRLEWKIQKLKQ

T17: P3SHb
T17 chain: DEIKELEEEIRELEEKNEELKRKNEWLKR

T18: P12SHb
T18 chain: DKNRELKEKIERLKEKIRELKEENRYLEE

T19: P2SHb
T19 chain: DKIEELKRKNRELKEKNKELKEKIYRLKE

T20: P4SHb
T20 chain: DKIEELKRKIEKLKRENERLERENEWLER

T21: P8SHb
T21 chain: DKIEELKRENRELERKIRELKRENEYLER

T22: P11SHb
T22 chain: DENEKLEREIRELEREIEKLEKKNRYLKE

T23: P1SHb
T23 chain: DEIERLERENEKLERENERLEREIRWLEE

T24: P7SHb
T24 chain: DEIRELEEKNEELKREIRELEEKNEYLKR

T25: P9SHb
T25 chain: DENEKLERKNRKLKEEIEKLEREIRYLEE

T26: P6SHb
T26 chain: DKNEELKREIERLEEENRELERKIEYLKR


Legend:
Experiment in all cases: two-hybrid library CCNG1;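 further: natural log of median RNA to DNA barcode read ratio; higher means stronger binding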
O4-bP = molecular target: T1, O4-bP
O8-bP = molecular target: T2, O8-bP
O11-bP = molecular target: T3, O11-bP
O16-bP = molecular target: T4, O16-bP
O6-bP = molecular target: T5, O6-bP
O12-bP = molecular target: T6, O12-bP
O2-bP = molecular target: T7, O2-bP
O5-bP = molecular target: T8, O5-bP
O15-bP = molecular target: T9, O15-bP
O1-bP = molecular target: T10, O1-bP
O13-bP = molecular target: T11, O13-bP
O3-bP = molecular target: T12, O3-bP
O7-bP = molecular target: T13, O7-bP
O9-bP = molecular target: T14, O9-bP
O10-bP = molecular target: T15, O10-bP
O14-bP = molecular target: T16, O14-bP
P3SHb = molecular target: T17, P3SHb
P12SHb = molecular target: T18, P12SHb
P2SHb = molecular target: T19, P2SHb
P4SHb = molecular target: T20, P4SHb
P8SHb = molecular target: T21, P8SHb
P11SHb = molecular target: T22, P11SHb
P1SHb = molecular target: T23, P1SHb
P7SHb = molecular target: T24, P7SHb
P9SHb = molecular target: T25, P9SHb
P6SHb = molecular target: T26, P6SHb

Binder	interaction score (O4-bP)	interaction score (O8-bP)	interaction score (O11-bP)	interaction score (O16-bP)	interaction score (O6-bP)	interaction score (O12-bP)	interaction score (O2-bP)	interaction score (O5-bP)	interaction score (O15-bP)	interaction score (O13-bP)	interaction score (O3-bP)	interaction score (O7-bP)	interaction score (O14-bP)	other results
DKNKQLKQENQRLEQEIQRLEWEIQKLEQ [O1-bP]	-1.05	-1.95	-0.513	-0.714	-0.442	-1.11	1.06	-1.22	-1.88	-0.754	-1.35	-1.06	-1.51	interaction score (O1-bP): -0.355; interaction score (O9-bP): 1.31; interaction score (O10-bP): -0.164
DKNKQLKQENQRLEQKIQRLKWKIQKLKQ [O10-bP]	-0.826	-1.81	-1.97	-0.76	-1.19	-1.28	0.624	-0.843	-0.788	-0.892	-0.676	-1.18	-0.56	interaction score (O9-bP; mean of both orientations): 0.966; interaction score (O10-bP; mean of both orientations): -0.552
DENEKLEREIRELEREIEKLEKKNRYLKE [P11SHb]	–	–	–	–	–	–	–	–	–	–	–	–	–	interaction score (P3SHb): -0.138; interaction score (P12SHb): 1.61; interaction score (P2SHb): 0.79; interaction score (P4SHb): 0.998; interaction score (P8SHb): -0.421; interaction score (P11SHb): 0.241; interaction score (P1SHb): -0.267; interaction score (P7SHb): 0.246; interaction score (P9SHb): 0.702; interaction score (P6SHb): 1.17
